In patent publication US20230312751A1, “Anti-Fibrotic Combination” (Engitix Limited, priority 2020, published 2023):
“Also recorded” adds a separate entry of the source.

Columns and labels:
Assay type in all cases: cell-based
[1] = system: Primary human hepatic stellate cells (HSCs); experiment: Collagen type I production by stimulated HSCs, western blot (Example 7); conditions: 48 h stimulation, chymase 30, 100 or 300 ng/mL, tryptase 300, 1000, 3000 ng/mL, alone or in combination
Procedure: Primary human hepatic stellate cells (HSCs) were grown to confluence and maintained in growth media for 10 days. Cells were maintained in serum-free media for 48 h and subsequently stimulated with either human chymase alone (30, 100 or 300 ng/mL), human tryptase alone (300, 1000, 3000 ng/mL) or human chymase and tryptase in combination as indicated for a further 48 h. The PAR2 agonist at 10 or 100 ng/mL and TGFb1 (3 ng/mL) served as a positive control, whilst serum-free conditions provided a negative control.
Media was removed and the cells and extracellular proteins deposited lysed in RIPA buffer.

[2] = system: Primary human hepatic stellate cells (HSCs); experiment: Deposited collagen type I in stimulated HSCs, immunofluorescence (Example 8)
Procedure: Primary human hepatic stellate cells (HSCs) were grown for 2 days. Cells were maintained in serum-free media for 48 h and subsequently stimulated with either human chymase (C) at 100 ng/mL, human tryptase (T) alone at 1000 ng/mL) or in combination (C 100 ng T 1000 ng) as indicated for a further 48 h. TGFβ1 served as a positive control, and serum-free conditions (SFM) as a negative control.
Following stimulation, media was removed and the cells washed in PBS and fixed with Formalin 4% for 15 min. Cells and extracellular proteins were stained with Rb ANTI-Col I (Novus Biologicals, NB600-408, 1:500) and images were acquired at 20× using a confocal microscope.

Primary human HSCs [3] = experiment: Secretion of pro-fibrogenic factors by stimulated HSCs, Luminex (Example 9); conditions: 48 h
Procedure: Primary human HSCs were grown to confluence and maintained in growth media for 10 days. Cells were maintained in serum-free media for 48 h and subsequently stimulated with either human Chymase (30, 100 or 300 ng/mL), human tryptase alone (300, 1000, 3000 ng/mL) or in combination with chymase for a further 48 h. The TGFβ1 (3 ng/mL) served as a positive control and serum-free conditions as a negative control. Media was removed after 48 h and levels of secreted IGFBP-3, Tenascin C, Collagen IV and Endostatin levels were determined by Luminex.

Primary human HSCs [4] = experiment: Active/latent TGFβ in HSC conditioned media, TGFb-responsive luciferase reporter cells (Example 10); conditions: conditioned media heated at 80° C. for 10 minutes; chymase 100 (C2) and 30 ng/mL (C3)
Procedure: Primary human HSCs were grown to confluence and maintained in growth media for 10 days. Cells were maintained in serum-free media for 48 h and subsequently stimulated with either human Chymase (30, 100 or 300 ng/mL), human tryptase (300, 1000, 3000 ng/mL) or both in combination as indicated for a further 48 h. The TGFb1 (3 ng/mL) served at positive control and serum-free conditions as a negative control.
Conditioned media was collected and either transferred directly to cells harbouring a TGFb-responsive promoter linked to the firefly luciferase reporter gene for 24 h to determine the levels of active TGFb present in media, or conditioned media was heated at 80° C. for 10 minutes in order to activate in the conditioned media the latent TGFb into active TGFb present. The addition of exogenous TGFb1 (1 ng/mL served as a positive control. Cells were lysed after 24 h and levels of latent or active TGFb determined by measuring luciferase activity. The results are shown in FIG. 11.

[5] = chymase 100 ng/mL, tryptase 1000 ng/mL, 48 h

B1: chymase: human chymase, mast cell serine protease, added exogenously to stimulate hepatic stellate cells (protein, UniProt P23946 22-247, looked up)
Chymase: IIGGTECKPHSRPYMAYLEIVTSNGPSKFCGGFLIRRNFVLTAAHCAGRSITVTLGAHNITEEEDTWQKLEVIKQFRHPKYNTSTLHHDIMLLKLKEKASLTLAVGTLPFPSQFNFVPPGRMCRVAGWGRTGVLKPGSDTLQEVKLRLMDPQACSHFRDFDHNLQLCVGNPRKTKSAFKGDSGGPLLCAGVAQGIVSYGRSDAKPPAVFTRISHYRPWINQILQAN
- collagen type I protein compared to basal levels in untreated cells [1]: marked increase
- cell number (nuclear stain Hoechst) ([2]; C100 ng/mL, T1000 ng/mL, C100/T1000 ng/mL, relative to serum-free medium and TGF-beta controls): no effect
- deposited collagen type I (collagen area / immunofluorescence intensity normalised to cell number) relative to SFM [2, 5]: did not induce a significant change
- distribution of deposited collagen type I compared to serum-free alone (SFM) [2, 5]: change in distribution; also recorded: altered collagen distribution patterns
- secreted IGFBP3 (Primary human HSCs [3]; regardless of concentration): marked increase
- secreted Tenascin C (Primary human HSCs [3]; chymase 30, 100 or 300 ng/mL): concentration-dependent increase
- secreted collagen IV (Primary human HSCs [3]; chymase 30, 100 or 300 ng/mL): concentration-dependent increase
- secreted endostatin (Primary human HSCs [3]; chymase at all concentrations): significant increase
- secreted latent TGFβ in conditioned media (Primary human HSCs [4]): increases
